In doi:10.1101/436014, “Human telomere repeat binding factor TRF1 replaces TRF2 bound to shelterin core hub TIN2 when TPP1 is absent” (bioRxiv, 2018):
Each block holds one binder with its values, some of them ahead of it.

Assays:
[1] = target: T1, Telomere Repeat-binding Factor 1 (TRF1), full-length human (human, UniProt P54274 1-439, Alexa Fluor 594 or Alexa Fluor 488 label where used labeled (site not stated); unlabeled where used as competitor and in MST); experiment: MST; Alexa Fluor 488 labeled TIN2 incubated with different concentrations of TRF1 or TRF2; 50 mM sodium phosphate pH 7.0, 50 mM NaCl; 12 °C; apparent KD; conditions: both partners purified
T1 construct: TRF1, human, full-length; Removal of the His tag is not mentioned
T1 sequence (looked up): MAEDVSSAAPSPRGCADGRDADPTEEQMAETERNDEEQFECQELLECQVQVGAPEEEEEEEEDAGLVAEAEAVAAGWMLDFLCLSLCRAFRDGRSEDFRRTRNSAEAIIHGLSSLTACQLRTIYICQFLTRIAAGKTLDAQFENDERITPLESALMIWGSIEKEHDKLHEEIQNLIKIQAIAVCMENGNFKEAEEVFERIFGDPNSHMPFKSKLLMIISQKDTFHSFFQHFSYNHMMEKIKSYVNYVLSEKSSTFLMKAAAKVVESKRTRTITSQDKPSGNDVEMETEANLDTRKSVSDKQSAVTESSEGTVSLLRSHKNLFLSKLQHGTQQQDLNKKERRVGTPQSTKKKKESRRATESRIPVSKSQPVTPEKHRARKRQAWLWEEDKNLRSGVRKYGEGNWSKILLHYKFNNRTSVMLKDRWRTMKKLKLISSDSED

[2] = target: T2, Telomere Repeat-binding Factor 2 (TRF2), full-length human (human, UniProt Q15554 1-542, Alexa Fluor 594 or Alexa Fluor 488 label where used labeled (site not stated); unlabeled where used as competitor and in MST); experiment: as above; conditions: both partners purified
T2 construct: TRF2, human, full-length; Removal of the His tag is not mentioned
T2 sequence (looked up): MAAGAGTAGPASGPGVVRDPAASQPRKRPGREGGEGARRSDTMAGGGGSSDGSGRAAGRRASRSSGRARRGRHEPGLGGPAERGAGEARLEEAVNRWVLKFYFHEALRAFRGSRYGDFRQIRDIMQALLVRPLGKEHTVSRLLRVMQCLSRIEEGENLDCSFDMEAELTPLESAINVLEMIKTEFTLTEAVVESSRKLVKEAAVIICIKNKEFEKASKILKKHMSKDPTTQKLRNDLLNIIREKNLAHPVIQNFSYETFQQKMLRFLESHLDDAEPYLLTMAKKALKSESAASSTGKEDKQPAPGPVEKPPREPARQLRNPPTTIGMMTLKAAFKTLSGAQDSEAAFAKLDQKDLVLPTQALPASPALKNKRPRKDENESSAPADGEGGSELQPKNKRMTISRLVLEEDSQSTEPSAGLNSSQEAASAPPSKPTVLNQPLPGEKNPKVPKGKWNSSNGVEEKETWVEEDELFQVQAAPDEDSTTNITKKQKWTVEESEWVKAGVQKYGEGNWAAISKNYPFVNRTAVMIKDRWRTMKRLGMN

TRF1;TIN2 = TRF1;TIN2 (human;human, UniProt P54274;Q9BSI4 1-439;1-451, |); experiment: fluorescence anisotropy; TRF1 5 uM:TIN2 2.5 uM (2:1) stock titrated into 7.5 nM DNA; KD only in figure; 50 mM sodium phosphate pH 7.0, 50 mM NaCl, 25 C; 7.5 nM Alexa Fluor 488-labeled DNA; 2 min incubation per titration step; conditions: protein: recombinant;recombinant; chain copies: 2;1; (described only as annealed with its complementary strand)

Kd [1]: 240 nM
Kd [2]: 360 nM
B1: TRF1-Interacting Nuclear factor 2 (TIN2), full-length human (natural protein)
chain: ATPLVAGPAALRFAAAASWQVVRGRCVEHFPRVLEFLRSLRAVAPGLVRYRHHERLCMGLKAKVVVELILQGRPWAQVLKALNHHFPESGPIVRDPKATKQDLRKILEAQETFYQQVKQLSEAPVDLASKLQELEQEYGEPFLAAMEKLLFEYLCQLEKALPTPQAQQLQDVLSWMQPGVSITSSLAWRQYGVDMGWLLPECSVTDSVNLAEPMEQNPPQQQRLALHNPLPKAKPGTHLPQGPSSRTHPEPLAGRHFNLAPLGRRRVQSQWASTRGGHKERPTVMLFPFRNLGSPTQVISKPESKEEHAIYTADLAMGTRAASTGKSKSPCQTLGGRALKENPVDLPATEQKENCLDCYMDPLRLSLLPPRARKPVCPPSLCSSVITIGDLVLDSDEEENGQGEGKESLENYQKTKFDTLIPTLCEYLPPSGHGAIPVSSCDCRDSSRPL
modifications: Alexa Fluor 488 label where used labeled (site not stated); unlabeled in the TRF1/TRF2 cross-correlation experiment and in SEC

B2: R5 telomeric duplex (five repeats) (dsDNA)
DNA 1: GTTAGGGTTAGGGTTAGGGTTAGGGTTAGGGTTAG
DNA 2: CTAACCCTAACCCTAACCCTAACCCTAACCCTAAC
binding result (TRF1;TIN2): binds
